Laboratory results published in the supplement of paper PMC7125110.
± gives the standard error. For some assays here: Fewer inactive variants are shown than the library holds.

B1: glmS ribozyme (parent)
chain: AUAAAAGCGCCAGAACUACAGAAAUGUAGUUGACGAGGAGGAGGUUUAUCGAAUUUUCGGCGGAUGCCUCCAAA

What was measured:
Details in all cases: with glucosamine-6-phosphate
glucosamine-6-phosphate [1] = variants of: B1; assay: kcat; higher = faster cleavage; RNA array
Procedure, shortened: (§1)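 Glucosamine-6-phosphate, from 40 μM to 10 mM in HEPES/KCl/Mg(OAc)2 buffer, was flowed over sequenced MiSeq chips carrying barcoded ribozyme variants transcribed in situ by E. coli RNA polymerase. A hybridised Cy3 probe tracked the variants at 37 °C as tiles were imaged over ~14 h. kobs, kcat and KM were obtained by fitting normalised per-tile medians to exponential decays and then applying weighted Michaelis–Menten fits across concentrations.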

glucosamine-6-phosphate [2] = variants of: B1; assay: KM; higher = weaker cofactor use; RNA array
Procedure, shortened: as §1

glucosamine-6-phosphate [3] = variants of: B1; assay: self-cleavage kobs at 640 uM GlcN6P; higher = faster cleavage; RNA array
Procedure, shortened: as §1

glucosamine-6-phosphate [4] = variants of: B1; assay: self-cleavage kobs at 2500 uM GlcN6P; higher = faster cleavage; RNA array
Procedure, shortened: as §1

glucosamine-6-phosphate [5] = variants of: B1; assay: self-cleavage kobs at 10000 uM GlcN6P; higher = faster cleavage; RNA array
Procedure, shortened: as §1

glucosamine-6-phosphate [6] = variants of: B1; assay: self-cleavage kobs at 40 uM GlcN6P; higher = faster cleavage; RNA array
Procedure, shortened: as §1

glucosamine-6-phosphate [7] = variants of: B1; assay: self-cleavage kobs at 160 uM GlcN6P; higher = faster cleavage; RNA array
Procedure, shortened: as §1

Variant	kcat (glucosamine-6-phosphate [1])	KM (glucosamine-6-phosphate [2])	self-cleavage kobs at 640 uM GlcN6P (glucosamine-6-phosphate [3])	self-cleavage kobs at 2500 uM GlcN6P (glucosamine-6-phosphate [4])	self-cleavage kobs at 10000 uM GlcN6P (glucosamine-6-phosphate [5])	self-cleavage kobs at 40 uM GlcN6P (glucosamine-6-phosphate [6])	self-cleavage kobs at 160 uM GlcN6P (glucosamine-6-phosphate [7])
A12C G13U	0.000279 ± 2.1e-05 s⁻¹	6200 ± 850 µM	2.43e-05 ± 6.8e-06 s⁻¹	8.18e-05 ± 1e-05 s⁻¹	0.000172 ± 1.6e-05 s⁻¹	–	–
A33U U47G	4.65e-05 ± 3.9e-06 s⁻¹	–	–	4.09e-05 ± 6.6e-06 s⁻¹	4.2e-05 ± 5.3e-06 s⁻¹	< 1e-05 s⁻¹	–
A14U C71G	0.000432 ± 8.9e-05 s⁻¹	1620 ± 630 µM	0.000111 ± 1.3e-05 s⁻¹	0.000237 ± 3.2e-05 s⁻¹	0.000402 ± 4.2e-05 s⁻¹	2.7e-05 ± 9.2e-06 s⁻¹	5.71e-05 ± 1.1e-05 s⁻¹
A42U C70A	0.00013 ± 6.8e-06 s⁻¹	813 ± 290 µM	–	9.98e-05 ± 1.2e-05 s⁻¹	0.00012 ± 9.1e-06 s⁻¹	–	–
C34G U47G C58A C68A	5.47e-05 ± 1.4e-05 s⁻¹	–	6.8e-05 ± 3.3e-05 s⁻¹	6.86e-05 ± 2.9e-05 s⁻¹	–	–	6.99e-05 ± 1.7e-05 s⁻¹
G41C C67U C70A	5.68e-05 ± 1.2e-05 s⁻¹	9730 ± 3700 µM	–	–	2.88e-05 ± 1.3e-05 s⁻¹	–	–
C11G U30C U65G U69A	2.81e-05 ± 7.1e-06 s⁻¹	–	–	–	–	–	–
A14G A52C	4.48e-05 ± 2.1e-06 s⁻¹	3920 ± 400 µM	–	1.73e-05 ± 7.9e-06 s⁻¹	3.23e-05 ± 1.3e-05 s⁻¹	–	–
A6C G37U	< 1e-05 s⁻¹	–	–	–	–	< 1e-05 s⁻¹	–
A15G G51U C71A	1.45e-05 ± 1.7e-06 s⁻¹	510 ± 210 µM	–	–	< 1e-05 s⁻¹	–	–
U57C A64G	0.000236 ± 3.1e-06 s⁻¹	3140 ± 87 µM	3.93e-05 ± 7.8e-06 s⁻¹	0.000106 ± 1.3e-05 s⁻¹	0.000179 ± 1.7e-05 s⁻¹	–	–
G62U C67U	< 1e-05 s⁻¹	–	–	–	< 1e-05 s⁻¹	–	–
C11A U54A	0.000163 ± 1.3e-05 s⁻¹	1490 ± 400 µM	5.49e-05 ± 1.4e-05 s⁻¹	9.05e-05 ± 1.9e-05 s⁻¹	0.000145 ± 1.4e-05 s⁻¹	–	–
A6U U56A	0.000103 ± 7e-06 s⁻¹	1590 ± 350 µM	3.39e-05 ± 1e-05 s⁻¹	5.83e-05 ± 9e-06 s⁻¹	9.06e-05 ± 9.5e-06 s⁻¹	–	–
A12U U47C	0.0109 ± 0.0038 s⁻¹	1790 ± 840 µM	0.00299 ± 0.00033 s⁻¹	0.0111 ± 0.0021 s⁻¹	0.00873 ± 0.0011 s⁻¹	0.00032 ± 3.3e-05 s⁻¹	0.000599 ± 0.0001 s⁻¹
A14G C68A	9.34e-05 ± 1.3e-05 s⁻¹	254 ± 120 µM	7.66e-05 ± 1.6e-05 s⁻¹	0.000105 ± 3.4e-05 s⁻¹	7.77e-05 ± 2.1e-05 s⁻¹	–	2.91e-05 ± 1.3e-05 s⁻¹
A14G C68G	0.000237 ± 2.5e-05 s⁻¹	590 ± 180 µM	0.000123 ± 1.6e-05 s⁻¹	0.000181 ± 2.1e-05 s⁻¹	0.000235 ± 2.4e-05 s⁻¹	3.33e-05 ± 1.1e-05 s⁻¹	4.57e-05 ± 1.1e-05 s⁻¹
